Legend:
Test in all cases: cell-based or functional assay
[1] = biological target: recombinant hIGFBP-3 standard (R&D Systems; synthesized in NSO mouse myeloma cells) (human) (UniProt P17936)
[2] = biological target: wild-type CHO-hIGFBP-3 (6xHis/Xpress/enterokinase-tagged mature human IGFBP-3 expressed in CHO-K1 cells from pRSV-Sec-BP3) (human) (UniProt P17936)
[3] = biological target: 6m-hIGFBP-3 (I56A, Y57A, R75A, L77A, L80A, L81A mutant CHO-hIGFBP-3) (human) (UniProt P17936)
Sequence of 6m-hIGFBP-3 (I56A, Y57A, R75A, L77A, L80A, L81A mutant CHO-hIGFBP-3) (human) (P17936 other isoform, or with tags, fused parts or gaps I56A Y57A R75A L77A L80A L81A I56A Y57A R75A L77A L80A L81A): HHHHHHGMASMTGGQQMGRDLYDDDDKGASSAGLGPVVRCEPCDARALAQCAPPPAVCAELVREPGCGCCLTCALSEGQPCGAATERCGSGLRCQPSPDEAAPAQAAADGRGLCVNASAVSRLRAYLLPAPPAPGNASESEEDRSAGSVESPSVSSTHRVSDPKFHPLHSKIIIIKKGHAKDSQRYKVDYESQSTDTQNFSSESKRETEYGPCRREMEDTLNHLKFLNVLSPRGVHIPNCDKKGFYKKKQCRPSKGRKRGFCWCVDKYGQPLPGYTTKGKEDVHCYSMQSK

Sequence of recombinant hIGFBP-3 standard (R&D Systems; synthesized in NSO mouse myeloma cells) (human) (P17936 28-291 limits assumed): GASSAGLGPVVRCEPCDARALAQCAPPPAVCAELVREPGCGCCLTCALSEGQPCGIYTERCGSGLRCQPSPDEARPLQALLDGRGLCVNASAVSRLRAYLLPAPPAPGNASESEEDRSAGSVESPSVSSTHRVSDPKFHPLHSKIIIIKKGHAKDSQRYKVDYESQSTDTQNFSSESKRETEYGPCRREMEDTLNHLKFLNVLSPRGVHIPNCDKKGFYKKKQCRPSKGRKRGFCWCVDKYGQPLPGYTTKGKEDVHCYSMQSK
Sequence of wild-type CHO-hIGFBP-3 (6xHis/Xpress/enterokinase-tagged mature human IGFBP-3 expressed in CHO-K1 cells from pRSV-Sec-BP3) (human) (P17936 other isoform, or with tags, fused parts or gaps limits assumed): as the sequence (P17936 other isoform, or with tags, fused parts or gaps I56A Y57A R75A L77A L80A L81A I56A Y57A R75A L77A L80A L81A) above, with A83I, A84Y, A102R, A104L, A107L, A108L counted along it

percentage of floating PC-3 cells that were dead, with Leu^60-IGF-I [1]: 14% | percentage of floating PC-3 cells that were dead, without Leu^60-IGF-I [1]: 82% | percentage of floating PC-3 cells that were dead, with Leu^60-IGF-I [2]: 14% | percentage of floating PC-3 cells that were dead, without Leu^60-IGF-I [2]: 82% | percentage of floating PC-3 cells that were dead, with Leu^60-IGF-I [3]: 80% | percentage of floating PC-3 cells that were dead, without Leu^60-IGF-I [3]: 86%
Substance: Leu^60-IGF-I (IGF-I analogue in which leucine is substituted for tyrosine at position 60; expressed in Escherichia coli) (from UniProt P05019 49-118) (ligand)
